T1: human CAPRIN-1 on the cell membrane surface of human cancer cells (human, UniProt Q14444 2-709)
T1 construct: whole, on cells
T1 sequence (looked up): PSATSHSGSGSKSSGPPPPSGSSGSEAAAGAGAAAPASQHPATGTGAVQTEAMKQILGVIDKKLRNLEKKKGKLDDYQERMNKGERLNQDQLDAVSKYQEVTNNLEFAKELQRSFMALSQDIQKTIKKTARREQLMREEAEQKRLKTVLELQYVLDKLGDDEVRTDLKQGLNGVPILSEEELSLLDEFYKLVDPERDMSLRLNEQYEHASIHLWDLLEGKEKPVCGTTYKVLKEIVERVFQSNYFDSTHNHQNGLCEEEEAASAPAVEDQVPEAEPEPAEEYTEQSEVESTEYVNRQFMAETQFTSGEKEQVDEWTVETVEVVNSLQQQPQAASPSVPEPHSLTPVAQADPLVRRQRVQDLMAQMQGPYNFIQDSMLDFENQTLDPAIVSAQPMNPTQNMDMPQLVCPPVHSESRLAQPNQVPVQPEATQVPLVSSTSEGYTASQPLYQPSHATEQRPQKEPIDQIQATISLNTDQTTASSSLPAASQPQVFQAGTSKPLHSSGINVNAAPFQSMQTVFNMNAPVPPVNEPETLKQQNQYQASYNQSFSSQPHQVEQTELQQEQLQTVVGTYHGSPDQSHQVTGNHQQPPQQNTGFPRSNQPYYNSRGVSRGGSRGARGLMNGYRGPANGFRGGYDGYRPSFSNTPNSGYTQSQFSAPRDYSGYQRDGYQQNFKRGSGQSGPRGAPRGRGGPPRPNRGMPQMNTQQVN

T2: mouse CAPRIN-1 on mouse cancer cells (mouse, UniProt Q60865 2-707)
T2 construct: whole, on cells
T2 sequence (looked up): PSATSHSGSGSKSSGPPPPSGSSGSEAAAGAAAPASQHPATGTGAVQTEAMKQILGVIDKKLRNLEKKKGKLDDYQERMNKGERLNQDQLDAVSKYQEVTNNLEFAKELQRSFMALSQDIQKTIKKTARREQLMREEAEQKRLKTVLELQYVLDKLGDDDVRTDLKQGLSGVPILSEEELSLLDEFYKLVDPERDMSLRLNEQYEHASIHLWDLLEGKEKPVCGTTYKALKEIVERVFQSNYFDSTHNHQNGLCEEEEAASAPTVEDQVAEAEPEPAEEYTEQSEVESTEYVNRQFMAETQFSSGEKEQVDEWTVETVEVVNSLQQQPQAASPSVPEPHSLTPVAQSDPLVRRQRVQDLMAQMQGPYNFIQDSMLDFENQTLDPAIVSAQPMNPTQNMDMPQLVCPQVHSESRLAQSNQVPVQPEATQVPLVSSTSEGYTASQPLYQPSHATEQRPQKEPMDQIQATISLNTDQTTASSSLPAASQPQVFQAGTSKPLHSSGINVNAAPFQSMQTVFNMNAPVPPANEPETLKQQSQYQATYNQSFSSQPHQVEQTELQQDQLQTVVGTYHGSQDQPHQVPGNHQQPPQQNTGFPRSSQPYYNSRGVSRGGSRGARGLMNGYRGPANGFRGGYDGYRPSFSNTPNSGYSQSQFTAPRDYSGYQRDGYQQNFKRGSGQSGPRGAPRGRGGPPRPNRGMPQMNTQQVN

B1: Conjugate 100 (antibody, V domains shown)
VH: DAELVKPGASVKISCKASGYTFTDHSIHWVQQKPEQGLEWIGYISPGNGNIKYNEKFKGKATLTADKSSSTAYMQLNSLTSEDSAVYFCKRSLGRGGPYYFDYWGQGTTVTVSS
VL: DIVLTQAAPSLPVTPGESVSISCRSSKSLLHSNGNTYLYWFLQRPGQSPQLLIYRMSNLASGVPDRFSGSGSGTAFTLRISRVEAEDVGVYYCMQHREYPVTFGSGPN
notes: human IgG1 constant regions; also called conjugate with MMAE using humanized antibody #14
B2: Conjugate 122 (antibody, V domains shown)
VH: EVQLVESGGGLVQPGGSLRLSCAASGFSLSSHSLGWVRQAPGKGLEWIGDIRSGGSAYYANWAKGRFTISRDNSKNTLYLQMNSLRAEDTAVYYCTRTNGPSDLTNRLDLWGQGTLVTVSS
VL: QVLTQSPSSLSASVGDRVTINCQASQSLYNNENLAWFQQKPGKVPKRLIYGASTLASGVSSRFSGSGSGTEFTLTISSLQCEDFAIYYCLGEFSCGSADCFAFGGGTKVEIK
notes: human IgG1 constant regions; also called conjugate with MMAE using humanized antibody #36
B3: Conjugate 124 (antibody, V domains shown)
VH: B2 VH
VL: EQVLTQSPSSLSASVGDRVTINCQASQSLYNNENLAWFQQKPGKVPKRLIYGASTLASGVSSRFSGSGSGTEFTLTISNLQPEDFAIYYCLGEFSCGSADCFAFGGGTKVEIK
notes: human IgG1 constant regions; also called conjugate with MMAE using humanized antibody #38
B4: Conjugate 99 (antibody, V domains shown)
VH: GAELVRSGASVKMSCKASGYSFTDYNMYWVKQTPGQGLEWIGYIYPGNGGTNYNQKFKGKATLTADTSSSTAYMQISSLTSEDSAVYFCARDYDDGGYAMDYWGQGTTVTVSS
VL: DIQMTQSPASLSASVGETVTITCRASGNIHNYLTWYQQKQGKSPQLLVYNAKTLADGVPSRFSGSGSGTQYSLKINRLQPEDFGSYYCQHFWNIPWTFGGGTKLNSR
notes: human IgG1 constant regions; also called conjugate with MMAE using humanized antibody #13
B5: Conjugate 95 (antibody, V domains shown)
VH: AVTLDESGGGLQTPGGALSLVCKASGFTFSGYDMLWVRQAPGKGLEWVAGIGSTGGGTDYGAAVKGRATISRDNGQSTVRLQLNNLRAEDTATYYCAKVAGGCNSGYCRDSPGSIDAWGHGTEVIVS
VL: AVTQQPASVSANPGETVKITCSGGGSRNYYGWYQQKSPGSVPVTVIYYDDQRPSNIPSRFSGALSGSTSTLTITGVQADDEAVYFCGSADSNTYEGSFGAGTTLTVL
notes: human IgG1 constant regions; also called conjugate with MMAE using humanized antibody #9

Each binder was assayed against T1, human CAPRIN-1 on the cell membrane … (assay: flow cytometry, BT474 cells).
Method: The tube was left at 4° C. for 1 hour. After washing with PBS, Alexa 488-labeled anti-rabbit IgG (H+L) diluted 100-fold with PBS(-) containing 0.5% FBS (0.5% FBS-PBS(-)) was added thereto, and the tube was left at 4° C. for 1 hour. After washing with 0.5% FBS-PBS(-), the cells were reacted with BD Horizon Fixable Viability Stain (FVS) Reagents (FVS450, Becton, Dickinson and Company) to stain dead cells, and the fluorescence intensity was then measured using FACSFortessa™ (Becton, Dickinson and Company).

| Binder | binding result |
| --- | --- |
| B1 | binds |
| B2 | binds |
| B3 | binds |
| B4 | binds |
| B5 | binds |

These binders were tested against T2, mouse CAPRIN-1 on mouse cancer cells (assay: flow cytometry, Renca and 4T1 cells).

| Binder | binding result |
| --- | --- |
| B1 | binds |
| B2 | binds |
| B3 | binds |
| B4 | binds |
| B5 | binds |
